The values that follow come from patent US20240084003A1 (SIMCERE ZAIMING PHARMACEUTICAL, published 2024).

In general, EC50 (read off the curve) refers to the concentration at which the effect is half-maximal. The low end stands for an effect from little substance, the high end for a need for much substance.

Assay [1] concerns the target T1, human CD22-ECD-His protein (human, UniProt P20273 20-687).
T1 construct: Made in house in HEK293E; also called hCD22-ECD-His; recombinant human CD22-ECD His protein; not shown: His tag
T1 sequence: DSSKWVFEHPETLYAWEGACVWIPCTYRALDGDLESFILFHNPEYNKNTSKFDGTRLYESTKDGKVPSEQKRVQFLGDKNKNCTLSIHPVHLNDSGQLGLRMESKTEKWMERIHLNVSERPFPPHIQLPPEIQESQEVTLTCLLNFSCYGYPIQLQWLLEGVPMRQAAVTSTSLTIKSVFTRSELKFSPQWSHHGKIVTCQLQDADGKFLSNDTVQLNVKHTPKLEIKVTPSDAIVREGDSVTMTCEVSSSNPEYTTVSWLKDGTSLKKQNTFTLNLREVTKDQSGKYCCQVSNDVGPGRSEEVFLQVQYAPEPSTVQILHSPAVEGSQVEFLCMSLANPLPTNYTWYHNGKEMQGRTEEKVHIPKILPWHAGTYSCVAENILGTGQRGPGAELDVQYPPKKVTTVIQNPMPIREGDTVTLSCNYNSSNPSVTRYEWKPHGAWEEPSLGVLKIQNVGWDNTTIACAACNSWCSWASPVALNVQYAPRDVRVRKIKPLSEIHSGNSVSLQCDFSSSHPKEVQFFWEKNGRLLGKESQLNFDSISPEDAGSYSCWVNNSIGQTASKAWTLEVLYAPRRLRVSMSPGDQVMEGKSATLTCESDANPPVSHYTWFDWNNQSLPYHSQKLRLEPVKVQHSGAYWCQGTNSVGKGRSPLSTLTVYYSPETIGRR
Put plainly: ELISA, human CD22-ECD-His coated. The method, then: (§1) In order to detect the binding activity of CD22 human-murine chimeric antibodies to CD22 protein, the purified human CD22-ECD-His protein obtained in Example 2 was diluted with PBS to a final concentration of 2 μg/mL, and then added to 96-well ELISA plate at 100 μl/well. The plate was sealed with plastic film and incubated overnight at 4° C., the plate was washed 2 times with PBS the next day, and then a blocking solution [PBS+2% (w/w) BSA] was added for blocking at room temperature for 2 hours. […] After incubation at 37° C. for 2 hours, the plate was washed 3 times with PBS. HRP (horseradish peroxidase)-labeled secondary antibody (purchased from Sigma, catalog number: A0170) was added, and incubated at 37° C. for 2 hours, and the plate was washed 5 times with PBS. TMB substrate was added at 50 μl/well, and incubated at room temperature for 30 minutes, then a stop solution (1.0 N HCl) was added at 50 μl/well.
(In an ELISA, binding on a coated surface is turned into a signal by an enzyme label.)

Assay [2] deals with T1, human CD22-ECD-His protein. Put plainly: ELISA, Ab 0.10 nM. The method, then: as §1
The target in assay [3] is T1, human CD22-ECD-His protein. Briefly: ELISA, Ab 100.00 nM. The procedure: as §1
The target in assay [4] is T1, human CD22-ECD-His protein. Put plainly: ELISA, Ab 0.00001 nM. The procedure:
as §1

For assay [5], the target named is T1, human CD22-ECD-His protein. Briefly: ELISA, Ab 0.0001 nM. The procedure:
as §1

The target in another assay is T2, human CD22 domain1-4-His (human, UniProt P20273 20-425).
T2 construct: also called hCD22 domain1-4-His; not shown: His tag
T2 sequence: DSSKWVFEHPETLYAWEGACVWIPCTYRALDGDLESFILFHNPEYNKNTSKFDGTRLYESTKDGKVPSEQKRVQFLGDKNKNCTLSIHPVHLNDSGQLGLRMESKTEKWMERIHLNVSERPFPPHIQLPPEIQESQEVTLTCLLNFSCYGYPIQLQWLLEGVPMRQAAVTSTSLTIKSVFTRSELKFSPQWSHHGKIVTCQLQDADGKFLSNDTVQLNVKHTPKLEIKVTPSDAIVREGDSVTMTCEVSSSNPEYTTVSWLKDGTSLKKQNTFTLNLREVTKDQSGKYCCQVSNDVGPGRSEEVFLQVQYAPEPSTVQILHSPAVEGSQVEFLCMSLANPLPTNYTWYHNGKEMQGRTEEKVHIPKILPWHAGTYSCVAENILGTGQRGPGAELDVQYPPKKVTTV
Put plainly: ELISA, human CD22 domain1-4-His coated.

Assay [6] addresses T1, human CD22-ECD-His protein. Briefly: ELISA, Ab 10.00 nM. The procedure:
as §1

In assay [7] the target is T1, human CD22-ECD-His protein. Put plainly: ELISA, Ab 0.001 nM. The procedure:
as §1

For assay [8], the target named is T1, human CD22-ECD-His protein. Put plainly: ELISA, Ab 0.01 nM. The method, then:
as §1

For another assay, the target named is T3, human CD22 domain5-7-His (human, UniProt P20273 414-687).
T3 construct: also called hCD22 domain5-7-His; not shown: His tag
T3 sequence: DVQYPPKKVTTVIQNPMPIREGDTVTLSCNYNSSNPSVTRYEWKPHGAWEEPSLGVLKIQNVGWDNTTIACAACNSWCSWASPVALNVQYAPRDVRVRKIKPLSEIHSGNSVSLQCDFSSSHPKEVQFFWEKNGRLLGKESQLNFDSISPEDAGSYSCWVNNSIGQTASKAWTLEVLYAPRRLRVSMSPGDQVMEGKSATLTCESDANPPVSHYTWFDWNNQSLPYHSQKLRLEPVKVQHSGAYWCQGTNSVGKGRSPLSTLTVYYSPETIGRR
Put plainly: ELISA, human CD22 domain5-7-His coated.

In assay [9] the target is T4, murine CD22 protein (ACROBiosystems, SI2-M52Ha) (murine, UniProt P35329 22-708).
T4 construct: extracellular domain; also called murine CD22-ECD; murine CD22-ECD-His
T4 sequence (looked up): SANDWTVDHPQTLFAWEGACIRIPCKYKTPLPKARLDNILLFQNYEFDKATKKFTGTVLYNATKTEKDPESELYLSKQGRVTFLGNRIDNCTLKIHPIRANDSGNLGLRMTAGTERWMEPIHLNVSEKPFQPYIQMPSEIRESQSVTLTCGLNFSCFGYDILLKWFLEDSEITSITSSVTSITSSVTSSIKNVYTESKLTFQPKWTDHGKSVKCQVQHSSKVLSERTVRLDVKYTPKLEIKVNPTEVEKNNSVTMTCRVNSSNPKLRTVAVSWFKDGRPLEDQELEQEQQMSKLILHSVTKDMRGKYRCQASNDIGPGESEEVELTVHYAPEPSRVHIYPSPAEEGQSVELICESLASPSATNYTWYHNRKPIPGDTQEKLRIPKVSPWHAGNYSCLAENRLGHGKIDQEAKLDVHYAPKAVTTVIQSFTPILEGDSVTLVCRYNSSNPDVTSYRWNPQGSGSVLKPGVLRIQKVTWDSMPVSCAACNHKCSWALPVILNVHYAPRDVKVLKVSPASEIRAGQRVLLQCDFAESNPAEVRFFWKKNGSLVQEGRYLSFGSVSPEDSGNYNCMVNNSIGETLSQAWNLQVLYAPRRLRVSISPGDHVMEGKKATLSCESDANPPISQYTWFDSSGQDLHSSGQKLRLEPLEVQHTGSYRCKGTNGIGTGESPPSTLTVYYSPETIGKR
Put plainly: ELISA, murine CD22-ECD-His coated. The method, then: as §1
In order to detect the species cross-binding activity of the chimeric antibodies, an ELISA plate was coated with commercial murine CD22 protein (ACROBiosystems, catalog number: SI2-M52Ha) and monkey CD22 protein (ACROBiosystems, catalog number: SI2-R52Ha), respectively, and the ELISA detection was performed according to the method in Example 5.1.

B1: F1.7.6 (antibody, human IgG1, kappa, V domains shown)
VH: EIQLQQSGPELVKPGTSVKVSCKASGYDFTRYNMYWVKQSHGKSLEWIGYIDPYNGDTRYNQKFKGKATLTVDKSSSTAYMHLNSLTSEDSAVYYCEAIYYDMEGYALDYWGQGTSVTVSS
VL: DIVMSQSPSSLAVSVGEKVTMSCKSSQSLLYSNNQKNYLAWYQQKPGQSPKKLIYWASTRESGVPDRLTGSGSGTDFTLTISSVTAEDLAVYYCQQFYSYPWTFGGGTKLEIKR
notes: Human-murine chimeric IgG1, kappa
Take B1: the results for the “EC50 (read off the curve)” value (in assay [1]; in the assay with human CD22 domain1-4-His) were roughly 0.02 nM and roughly 0.03 nM, respectively. The OD450 in assay [2] amounted to 2.51 OD450; in assay [3], 2.88 OD450; in [4] it was 0.15 OD450; in assay [5], 0.34 OD450; in assay [6] it was 2.46 OD450; in assay [7], 1.19 OD450. In assay [8], this molecule showed an OD450 of 2.2 OD450. Also, the binding result (with human CD22 domain5-7-His; in assay [9]) was “no binding (tested: 100 nM)” each time.

B2: F2.127.11 (antibody, human IgG1, lambda, V domains shown)
VH: QVTLKESGPGILQPSQTLSLTCSFSGFSLSTFGMGVGWIRQPSGKGLEWLAHIWWDDDKHYNPALKSRLTISKDTSRNQVFLKIANVDTADGATYFCARDNWVSSLDYWGQGTSVIVSS
VL: QPVITQSSSASFSLGASAELTCTLSSQHSTYTIEWYQQQPLKPPKYVMGLKKDGSHSTGDGIPDRFSGSSSGADRYLSISNIQPEDEAIYICGVSDTIKEQFVYVFGGGTKVTVLG
notes: Human-murine chimeric IgG1, lambda
For B2, the 50% effective concentration (EC50 (read off the curve)) in assay [1] was roughly 0.05 nM; with human CD22 domain1-4-His it was roughly 0.1 nM. Also, the OD450 was determined as 1.91 OD450 in assay [2]; 1.92 OD450 in [3]; 0.21 OD450 in [4]; 0.26 OD450 in assay [5]; 1.98 OD450 in assay [6]; 0.5 OD450 in assay [7]. Also, the OD450 in assay [8] came out at 1.34 OD450. Moreover, the binding result (with human CD22 domain5-7-His; in [9]) was “no binding (tested: 100 nM)” in each case.

B3: F1.267.9 (antibody, human IgG1, kappa, V domains shown)
VH: EVQLQQSGPVLVKPGASVKMSCKASGYTFTDFYMNWAKQSHGKSLEWVGVINPYNGGINYNQKFKGKATLTVDKSSSTAYMEFNSLTSEDSAVYYCARRMEYHAMDYWGQGTSVTVSS
VL: DIVLTQSPASLAVSLGQRATISCRASESVDNYGFDFIHWYQQKPGQPPKLLIYRASNLESGIPARFSGSGSRPDFTLTINPVETDDVATYYCQQSIKDPWTFGGGTKLEIKR
notes: as for B1
As for B3, the “EC50 (read off the curve)” value in [1] was roughly 0.08 nM; in the assay with human CD22 domain1-4-His it was roughly 0.2 nM. Also, the OD450 came to 2.39 OD450 in assay [2]; 2.56 OD450 in [3]; 0.06 OD450 in assay [4]; 0.1 OD450 in [5]; 2.55 OD450 in assay [6]; 0.34 OD450 in assay [7]. In assay [8], the OD450 was found to be 1.47 OD450. Besides, the binding result (with human CD22 domain5-7-His; in assay [9]) was “no binding (tested: 100 nM)” in each case.

B4: F2.99.1 (antibody, human IgG1, lambda, V domains shown)
VH: QVTLKESGPGILQPSQTLSLTCSFSGFSLSTFPMGVGWIRQPSGKGLEWLAHIWWDDDEYYNPVLKSRLTISKDTSKKQVYLRIANVDTVDTATYYCTRANWDRWYFDVWGTGTTVTVSS
VL: QLVLTQSSSASFSLGASAKLTCTLSRQHSAYTIEWYQQQPLKPPKYVMEVKKDGSHSTGDGIPDRFSGSSSGADRYLSISNIQPEDEAIYICGVGDTIKEHFVFGGGTKVTVLG
notes: as for B2
Regarding B4, the “EC50 (read off the curve)” value was roughly 0.04 nM in assay [1] and roughly 0.05 nM with human CD22 domain1-4-His. The OD450 was 2.1 OD450 in [2]; 2.1 OD450 in [3]; 0.08 OD450 in assay [4]; 0.27 OD450 in [5]; 2.06 OD450 in assay [6]; 0.51 OD450 in [7]. Besides, in assay [8], the OD450 is 1.45 OD450. The binding result (in the assay with human CD22 domain5-7-His; in assay [9]) was “no binding (tested: 100 nM)” throughout.

B5: F2.42.9 (antibody, human IgG1, lambda, V domains shown)
VH: QVTLKESGPGILQPSQTLSLTCSFSGFSLSTFDRGVGWIRQPSGKGLEWLAHIWWNDKKFYNPVLKSRLTISKDTSKNQVFLTIANVDSADTATYSCARIVWDKYYFDYWGQGIPLTVSS
VL: QLVLTQSSSASFSLGASAKLTCTLSSQHSAYTIEWYQQQPLKPPKFVMDLKKDGSHSTGDGIPARFSGSSSGADRYLTISNIQPEDEAIYICGVGDTIKEQYVFGGGTKVTVLG
notes: as for B2
Consider B5, for which the “EC50 (read off the curve)” value (in assay [1]; with human CD22 domain1-4-His) was roughly 0.04 nM throughout. Moreover, the OD450 in assay [2] came out at 2.58 OD450; in assay [3], 3.14 OD450; in [4], 0.09 OD450; in [5], 0.19 OD450; in assay [6] it was 2.68 OD450; in assay [7], 0.68 OD450. In assay [8], this molecule gave an OD450 of 1.95 OD450. In addition, the binding result (in the assay with human CD22 domain5-7-His; in assay [9]) was “no binding (tested: 100 nM)” in each case.
